According to patent US20260152571A1 (BIOCYTOGEN PHARMACEUTICALS BEIJING, published 2026):
Positions count from the first letter of the chain named. Names and notes keep the numbering of the source.

B1: P01199-IgG1-SI (antibody, V domains shown)
VH: QVQLVESGGGLVKPGGSLRLSCAASGFTFSNAWMNWVRQTPGKGLEWVGRIKSKTDGGTKDYAAPVKGRFTISRDDSKNTLYLQMNSLNTEDTAVYYCSTDPRIAVTGTDYYYGMDVWGQGTTVTVSS
VL: not shown
notes: VH and VL joined to IgG1 constant regions with SI mutations (S239D and I332E, EU numbering) in the Fc
B2: P01264-IgG1-SI (antibody, V domains shown)
VH: B1 VH with Q1E, T40A, K60T, D75H, N89K, S99A
VL: DIVMTQTPSFLSASVGDRVTITCRASQDISNYLNWYQQKPGKAPKLLIYDASNLETGVPSRFSGSGSGTDFTFTISSLQPEDIATYYCQQYDNLPITFGQGTRLEIK
notes: as for B1
B3: 3E6-IgG1-SI (antibody, V domains shown)
VH: EVQLVESGGGVVRPGGSLRLSCAASGFTFDDSGMSWVRQGPGKGLEWVSGINWNGGSTGYADSVKGRFTISRDNAKNSLYLQMNSLRAEDTALYYCARDPGIAVAGPYYYYYYGMDVWGQGTTVTVSS
VL: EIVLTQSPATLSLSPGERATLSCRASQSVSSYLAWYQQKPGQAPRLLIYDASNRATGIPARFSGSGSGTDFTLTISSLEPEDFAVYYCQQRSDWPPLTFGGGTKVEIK
notes: as for B1
B4: P01218-IgG1-SI (antibody, V domains shown)
VH: EVQLVESGGGVVQPGRSLRLSCAASGFTFSSYAMHWVRQAPGKGLEWVAVISYDGSNKYYADSVKGRFTISRDNSKNTLYLQMNSLRAEDTAVYYCARAPYYGSGSYYNSYYYYHGMDVWGQGTTVTVSS
VL: AIWMTQSPSSLSASVGDRVTITCQASQDISNYLNWYQQKPGKAPNLLIYDASNLETGVPSRFSGSGSGTDFTLTISSLQPEDIATYYCQQYDNLPLTFGGGTKVEIK
notes: VH and VL joined to IgG1 constant regions with SI mutations (S239D and I332E, EU numbering) in the Fc; also called P01218-IgGI-SI
B5: 3A6-IgG1-SI (antibody, V domains shown)
VH: QVQLQESGPGMVKPSETLSLTCTVSGGSISYNYWSWIRQPPGKGLEWIGYIYHSGTTKYNPSLKSRVTMSVDTSKNHFSLKLNSVTAADTAVYYCARHEDYWFFDLWGRGTLVTVSS
VL: DIQMTQSPSSLSASVGDRVTITCRASQGISNYLVWFQQKPGKAPKSLIYAASILQSGVPSKFSGSGSGTDFTLTINSLQPEDFATYYCQQYNTYPFTFGPGTKVDIK
notes: as for B1
B6: 4F10-IgG1-SI (antibody, V domains shown)
VH: QVQLQESGPGLVKPSETLSLTCTVSGGSISNYYWSWIRQPPGKGLEWIGYIYYSGSTNYNPSLKSRVNISVDTSKSQVSLKLNSVIAADTAVYYCARHEDYWYFDLWGRGTLVTVSS
VL: DIQLTQSPSSLSASIRDRVTITCRASQDINNYLAWFQQKPGKAPKSLIYAVSSLESGVPSKFSGSGSGTDFTLTISSLQPEDFATYFCQQYNSYPFTFGPGTKVEIK
notes: as for B1
B7: 7B9-IgG1-SI (antibody, V domains shown)
VH: EVQLVESGGGVVQPGGSLRLSCAASGFTFDDYAMHWVRQAPGKGLEWVSLISGDDGSTYYADSMKGRITISRDNSKNSLYLQMNSLRTEDTAMYYCAKASYGSGSYLYNYGMDVWGQGTTVTVFS
VL: DIQLTQSPSSLSASVGDRVTITCQASQDIINYLNWYQQKPGKAPKLLIYDTSNLETGVPSRFSGSGSGTDFAFTINSLQPEDIATYYCQQFVNLPLTFGGGTKVEIK
notes: VH and VL joined to IgG1 constant regions with SI mutations (S239D and I332E, EU numbering) in the Fc; also called 7B9-IgGI-SI
B8: ESK1 analog (antibody, V domains shown)
VH: QMQLVQSGAEVKEPGESLRISCKGSGYSFTNFWISWVRQMPGKGLEWMGRVDPGYSYSTYSPSFQGHVTISADKSTSTAYLQWNSLKASDTAMYYCARVQYSGYYDWFDPWGQGTLVTVSS
VL: not shown
notes: Fully human TCR-like monoclonal IgG1 antibody
B9: 1G7-IgG1-SI (antibody, V domains shown)
VH: QVQLVESGGGVVRPGGSLRLSCTASGFTFDDYGMTWVRQAPGKGLEWVSGINWNGGSTGYADSVKGRFTISRDNAKNSLFLQMNSLRAEDTALYYCARDQGIAVVGTHYYYYYGMDVWGQGTAVTVSS
VL: EIVLTQSPATLSLSPGERATLSCRASQSFSSYLAWYQQKPGQAPRLLIFDTSNRATGIPARFSGSGSGTDFTLTISSLEPEDFAVYYCQQRSNWPLTFGGGTKVEIK
notes: as for B1
B10: 1E9-IgG1-SI (antibody, V domains shown)
VH: EVQMVESGGDVVRPGGSLRLSCAASGFMFDDYGMSWVRHVQGKGLEWVSGIDWNGDSTGYADSVKGRFTISRDNAKNSLYLQMNSLRAEDTALYYCARDQGIAVAGPYNYYYGMDVWGQGTTVTVSS
VL: B9 VL with F29V, Q38E, T51A, L96F, G100P, K103R
notes: VH and VL joined to IgG1 constant regions with SI mutations (S239D and I332E, EU numbering) in the Fc; also called 1E9-IgGI-SI

Each binder was assayed against WT1RMF/HLA-A2 complex on cells (human) (assay: flow cytometry, T2 cells pulsed with 25 µM WT1RMF, antibody 10 µg/mL).

B1 was tested. Which “Percentage of Positive Cells (%)” value did it give?
Its value is 88.5%.

For B2, which “Percentage of Positive Cells (%)” value is on record?
The value was 75.4%.

Which “Percentage of Positive Cells (%)” value does the source give for B3 here?
Its value is 30.9%.

How did the “Percentage of Positive Cells (%)” value turn out when B4 was run?
Its value is 92.8%.

With B5 as the binder, how does the “Percentage of Positive Cells (%)” value read?
The value was 70.3%.

With B6 as the binder, how does the “Percentage of Positive Cells (%)” value read?
Its value is 95.6%.

B7 was tested. Which “Percentage of Positive Cells (%)” value did it give?
Its value is 93%.

With B8 as the binder, how does the “Percentage of Positive Cells (%)” value read?
The value was 88.8%.

Which “Percentage of Positive Cells (%)” value does the source give for B9 here?
Its value is 92.4%.

B10 was tested. Which “Percentage of Positive Cells (%)” value did it give?
The value was 94.9%.

Each binder was assayed against WT1RMF/HLA-A2 complex on cells (human) (assay: flow cytometry, T2 cells pulsed with 50 µM WT1RMF, antibody titrated 0.00096-45 nM, MFI curve).

With B2 as the binder, how does the EC50 read?
The EC50 was 0.896 nM.

How did the EC50 turn out when B3 was run?
Its EC50 is 2.02 nM.

How did the EC50 turn out when B4 was run?
Its EC50 is 3.48 nM.

B5 was tested. Which EC50 did it give?
Its EC50 is 2.26 nM.

For B6, which EC50 is on record?
Its EC50 is 0.42 nM.

Which EC50 does the source give for B7 here?
The EC50 was 0.553 nM.

B8 was tested. Which EC50 did it give?
The EC50 was 4.04 nM.

How did the EC50 turn out when B9 was run?
Its EC50 is 0.337 nM.

How did the EC50 turn out when B10 was run?
The EC50 was 0.798 nM.

The binders below were run against His-tagged WT1RMF/HLA-A2 complex (human) (assay: SPR, Biacore 8K; antibody captured on Protein A chip, His-tagged complex as analyte; 1:1 Langmuir fit).

B1 was tested. Which Kd did it give?
The Kd was 67.4 nM.

What about the koff of the same binder?
Its koff is 0.00987 s⁻¹.

And the kon?
The kon was 147000 M⁻¹ s⁻¹.

With B2 as the binder, how does the Kd read?
The Kd was 121 nM.

And the koff?
Its koff is 0.0177 s⁻¹.

What about the kon of the same binder?
Its kon is 146000 M⁻¹ s⁻¹.

What does the source list for B3?
Kd: 30.3 nM; koff: 0.00451 s⁻¹; kon: 149000 M⁻¹ s⁻¹

Which results are given for B4?
Kd: 16.1 nM; koff: 0.000902 s⁻¹; kon: 56200 M⁻¹ s⁻¹

What does the source list for B5?
Kd: 7100 nM; koff: 0.0204 s⁻¹; kon: 2870 M⁻¹ s⁻¹

How did the Kd turn out when B6 was run?
Its Kd is 0.43 nM.

And the koff?
Its koff is 0.000664 s⁻¹.

And the kon?
The kon was 1.54e+06 M⁻¹ s⁻¹.

Which results are given for B7?
Kd: 15.3 nM; koff: 0.00185 s⁻¹; kon: 121000 M⁻¹ s⁻¹

How did the Kd turn out when B9 was run?
Its Kd is 9.49 nM.

And the koff?
The koff was 0.00151 s⁻¹.

And the kon?
Its kon is 159000 M⁻¹ s⁻¹.

With B10 as the binder, how does the Kd read?
Its Kd is 22.4 nM.

What about the koff of the same binder?
The koff was 0.00164 s⁻¹.

What about the kon of the same binder?
The kon was 73100 M⁻¹ s⁻¹.

These binders were tested against WT1RMF/HLA-A2 complex on cells (human) (assay: flow cytometry (MFI), T2 cells pulsed with 50 µM WT1RMF, antibody titrated).

With B9 as the binder, how does the “EC50 (read off the curve)” value read?
Its value is roughly 1 nM.
